Values belong to the binder of their own block, whether it stands above or below them. Where no end group is shown, it is not given here.
Key:
[1] = biological target: T1, VEGFR-2 expressed in HUVECs (human, UniProt P35968 20-1356); experiment: flow cytometry (FACS) on HUVECs, FITC-RLYE 15 nM, VEGF-A 100 ng/ml added before or after
T1 construct: whole, on cells; On the surface of HUVECs in FACS, confocal microscopy and the cell assays; in detergent lysate of HUVECs in the pull-down assay; also called VEGF receptor-2
T1 sequence (P35968 20-1356): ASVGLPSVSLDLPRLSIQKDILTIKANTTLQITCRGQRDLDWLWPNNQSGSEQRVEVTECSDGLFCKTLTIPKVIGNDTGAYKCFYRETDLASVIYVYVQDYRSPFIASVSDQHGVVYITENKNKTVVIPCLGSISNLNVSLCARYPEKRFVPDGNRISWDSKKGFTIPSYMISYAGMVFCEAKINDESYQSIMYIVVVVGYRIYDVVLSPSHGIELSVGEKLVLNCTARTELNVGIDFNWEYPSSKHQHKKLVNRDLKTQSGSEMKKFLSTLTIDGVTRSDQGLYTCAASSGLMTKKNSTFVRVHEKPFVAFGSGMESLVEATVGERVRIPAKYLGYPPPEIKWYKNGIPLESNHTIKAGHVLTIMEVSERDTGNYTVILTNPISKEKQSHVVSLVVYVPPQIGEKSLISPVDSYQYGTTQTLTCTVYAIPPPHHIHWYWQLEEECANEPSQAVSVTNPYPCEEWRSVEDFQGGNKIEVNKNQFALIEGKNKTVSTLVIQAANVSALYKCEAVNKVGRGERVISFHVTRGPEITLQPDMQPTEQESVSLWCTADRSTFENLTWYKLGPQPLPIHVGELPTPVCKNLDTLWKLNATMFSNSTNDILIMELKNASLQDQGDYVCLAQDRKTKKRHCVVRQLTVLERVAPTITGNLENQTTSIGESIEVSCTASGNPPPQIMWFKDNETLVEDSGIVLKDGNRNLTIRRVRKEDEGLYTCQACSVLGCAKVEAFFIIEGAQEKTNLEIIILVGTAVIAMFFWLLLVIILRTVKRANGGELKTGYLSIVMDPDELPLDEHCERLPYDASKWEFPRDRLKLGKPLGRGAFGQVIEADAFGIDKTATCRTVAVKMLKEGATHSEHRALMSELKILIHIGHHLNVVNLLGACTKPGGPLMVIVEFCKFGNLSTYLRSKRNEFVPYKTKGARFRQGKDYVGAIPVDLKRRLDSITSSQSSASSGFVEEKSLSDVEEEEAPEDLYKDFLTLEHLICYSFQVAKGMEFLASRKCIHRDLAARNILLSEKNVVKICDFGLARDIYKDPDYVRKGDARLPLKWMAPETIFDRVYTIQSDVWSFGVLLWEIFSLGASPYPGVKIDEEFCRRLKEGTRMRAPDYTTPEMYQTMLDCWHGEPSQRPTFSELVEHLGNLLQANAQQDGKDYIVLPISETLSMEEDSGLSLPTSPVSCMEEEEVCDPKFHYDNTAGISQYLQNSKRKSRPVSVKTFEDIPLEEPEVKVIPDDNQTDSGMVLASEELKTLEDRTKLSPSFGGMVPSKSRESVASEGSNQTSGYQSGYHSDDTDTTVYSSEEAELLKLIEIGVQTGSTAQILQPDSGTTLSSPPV
Protocol: HUVECs were cultured in a 60-mm culture plate for 24 hours. The cells were isolated from the plate with 5 mM EDTA-containing phosphate-buffered saline (PBS), washed with PBS three times, and suspended in 2% FBS/0.1% bovine serum albumin-containing PBS. Afterward, before or after the reaction with FITC-conjugated RLYE (15 nM), the cells were treated with VEGF (100 ng/ml), stored on ice for 30 minutes, fixed in 2% paraformaldehyde, and assessed with a fluorescence activated cell sorter (FACS Calibur, Becton Dickinson) by flow cytometry.
(§1) Subsequently, it was investigated whether RLYE (SEQ ID NO: 2) interacts with VEGFR-2 expressed in HUVECs. HUVECs were cultured with FITC-RLYE before or after VEGF-A treatment, and FACS was performed to examine an amount of RLYE (SEQ ID NO: 2) binding to the HUVECs. […] To examine binding between RLYE (SEQ ID NO: 2) and VEGF receptors, a pull-down assay was performed. […] Therefore, the binding between RLYE (SEQ ID NO: 2) and VEGFR-2 was identified as a strong bond having a small dissociation coefficient (194 nM), and it was also seen that RLYE (SEQ ID NO: 2) binds to VEGFR-2 at the same positions to which VEGF-A/C binds (immunoglobulin homology domains D2 and D3) (see FIG. 10A).

[2] = biological target: T1, VEGFR-2 expressed in HUVECs; experiment: cell-based or functional assay
[3] = biological target: T2, rhVEGFR-2 (human, UniProt P35968 20-764, limits assumed); experiment: SPR (BIAcore), rhVEGFR-2 immobilised on the chip, RLYE injected
T2 construct: Immobilised on the carboxymethylated dextran chip for SPR; also called recombinant human VEGFR-2; VEGF receptor-2
T2 sequence (P35968 20-764 limits assumed): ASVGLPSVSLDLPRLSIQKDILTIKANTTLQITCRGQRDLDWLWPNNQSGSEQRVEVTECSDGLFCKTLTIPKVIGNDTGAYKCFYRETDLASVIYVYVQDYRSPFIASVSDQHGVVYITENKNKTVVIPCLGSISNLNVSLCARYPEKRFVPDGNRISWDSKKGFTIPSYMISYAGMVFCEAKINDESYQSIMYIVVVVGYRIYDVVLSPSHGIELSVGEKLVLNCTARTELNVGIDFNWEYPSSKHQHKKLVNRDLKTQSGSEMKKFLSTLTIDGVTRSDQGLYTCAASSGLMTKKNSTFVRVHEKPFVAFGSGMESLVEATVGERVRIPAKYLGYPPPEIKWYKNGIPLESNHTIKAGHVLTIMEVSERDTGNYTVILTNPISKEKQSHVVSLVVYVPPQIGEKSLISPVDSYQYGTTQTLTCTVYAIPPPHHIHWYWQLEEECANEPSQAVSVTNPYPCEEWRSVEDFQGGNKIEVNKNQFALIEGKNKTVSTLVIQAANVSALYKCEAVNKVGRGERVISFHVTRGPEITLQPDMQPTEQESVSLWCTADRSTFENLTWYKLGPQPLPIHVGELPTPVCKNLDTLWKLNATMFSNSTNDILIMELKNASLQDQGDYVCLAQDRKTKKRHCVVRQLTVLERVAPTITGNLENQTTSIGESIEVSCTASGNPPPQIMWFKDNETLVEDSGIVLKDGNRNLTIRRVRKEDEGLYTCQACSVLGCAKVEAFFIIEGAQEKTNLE
Protocol: Binding dynamics and affinity of RLYE to rhVEGFR-2 were evaluated with BIAcore AB (Sweden). A carboxymethylated dextran biosensor chip (CMS, BIAcore AB) was activated with 1-ethyl-3-(3-dimethylaminopropyl)carbodiimide and N-hydroxysuccinimide according to the manufacturer's manual. The rhVEGFR-2 (1 ng/μl, 10 mM Hepes, 150 mM NaCl, 3 mM EDTA, 0.005% Tween-20-containing HBS-EP buffer) was injected over the activated CMS chip for fixation. Various concentrations of an RLYE solution was injected over the rhVEGFR-2-fixed center chip with a flow rate of 25 μl/min, and binding and non-binding characteristics between RLYE and the rhVEGFR-2 were analyzed. The peptide bonds were measured in arbitrary response units, and after the injection of each sample (120 sec), the HBS-EP buffer was passed over a sensor surface to monitor dissociation. The equilibrium dissociation constant (Kd) was derived to a fixing step-combined model.
Meanwhile, the interaction between RLYE (SEQ ID NO: 2) and rhVEGFR-2 was examined by SPR analysis.

[4] = biological target: T3, VEGFR-1 (human, UniProt P17948 27-1338); experiment: streptavidin-agarose pull-down from HUVEC lysate with biotin-labeled RLYE, immunoblot for VEGFR-1
T3 construct: whole, on cells; In detergent lysate of HUVECs in the pull-down assay; on IM-9 and RPMI 8226 cells and HUVECs in the functional assays; also called VEGF receptor-1
T3 sequence (P17948 27-1338): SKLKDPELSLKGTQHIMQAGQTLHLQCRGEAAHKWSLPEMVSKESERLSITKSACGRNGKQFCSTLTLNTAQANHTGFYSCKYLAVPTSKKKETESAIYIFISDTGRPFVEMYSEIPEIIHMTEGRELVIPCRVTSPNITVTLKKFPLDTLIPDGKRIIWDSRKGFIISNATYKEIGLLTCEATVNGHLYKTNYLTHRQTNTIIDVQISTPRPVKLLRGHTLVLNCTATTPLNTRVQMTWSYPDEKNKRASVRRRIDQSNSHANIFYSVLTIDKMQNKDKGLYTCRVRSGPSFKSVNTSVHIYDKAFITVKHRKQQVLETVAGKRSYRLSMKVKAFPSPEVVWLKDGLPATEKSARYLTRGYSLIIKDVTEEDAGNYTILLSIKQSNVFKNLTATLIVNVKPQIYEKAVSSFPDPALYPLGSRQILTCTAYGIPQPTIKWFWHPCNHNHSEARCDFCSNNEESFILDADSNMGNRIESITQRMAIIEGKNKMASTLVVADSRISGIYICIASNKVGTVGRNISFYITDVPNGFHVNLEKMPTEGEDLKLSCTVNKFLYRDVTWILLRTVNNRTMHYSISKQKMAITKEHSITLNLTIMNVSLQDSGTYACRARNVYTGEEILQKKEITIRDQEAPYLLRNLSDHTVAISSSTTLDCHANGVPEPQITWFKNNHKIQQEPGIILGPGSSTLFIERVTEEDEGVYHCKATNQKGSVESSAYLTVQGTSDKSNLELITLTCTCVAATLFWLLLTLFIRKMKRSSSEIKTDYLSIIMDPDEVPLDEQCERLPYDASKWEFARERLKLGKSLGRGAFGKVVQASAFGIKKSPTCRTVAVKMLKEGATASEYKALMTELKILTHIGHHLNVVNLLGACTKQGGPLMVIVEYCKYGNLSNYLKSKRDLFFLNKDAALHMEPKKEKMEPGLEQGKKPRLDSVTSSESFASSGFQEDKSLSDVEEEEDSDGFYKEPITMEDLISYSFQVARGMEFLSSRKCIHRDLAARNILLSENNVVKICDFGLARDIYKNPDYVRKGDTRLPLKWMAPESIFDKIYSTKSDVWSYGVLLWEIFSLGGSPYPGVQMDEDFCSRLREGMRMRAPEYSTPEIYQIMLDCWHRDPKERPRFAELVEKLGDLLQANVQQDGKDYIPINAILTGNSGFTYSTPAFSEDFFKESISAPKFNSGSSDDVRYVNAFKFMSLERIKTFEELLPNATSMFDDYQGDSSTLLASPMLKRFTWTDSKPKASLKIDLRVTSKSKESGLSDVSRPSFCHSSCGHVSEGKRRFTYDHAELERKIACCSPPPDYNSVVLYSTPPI
Protocol: HUVECs were lysed in a pull-down buffer [50 mM Tris-HCl (pH 8.0), 150 mM sodium chloride, 1.0% NP-40, 0.5% sodium deoxycholate and 0.1% SDS]. A lysate ([…] of proteins) was reacted with biotin-labeled RLYE (0.15 or 1.5 nM) for 1 hour, and reacted with streptavidin-agarose beads ([…]) at 4° C. for 1 hour. RLYE-binding proteins were isolated from the cell lysate through centrifugation, washed, and then boiled for 10 minutes. The bead-binding proteins were isolated by SDS-PAGE, and immunoblotting was performed with an antibody with respect to VEGFR-2 or VEGFR-1.
as §1

binding result [1]: binds
B1: FITC-conjugated RLYE (peptide)
peptide: RLYE
modifications: also: FITC-conjugated, site not given here
notes: Used at 15 nM in FACS and at 100 ng/ml in confocal microscopy on HUVECs; also called FITC-RLYE

IC50 of VEGF-induced HUVEC migration (transwell) [2]: 0.06 nM
IC50 of VEGF-induced HUVEC proliferation ([3H]-thymidine incorporation) [2]: 0.08 nM
Kd [3]: 9000 nM
B2: RLYE peptide (SEQ ID NO: 2) (peptide)
peptide: RLYE
notes: Unlabelled synthetic tetrapeptide, analyte in the SPR assay and used in the cell assays

binding result [4]: no binding
B3: biotin-labeled RLYE (peptide)
peptide: RLYE
modifications: also: biotin-labeled, site not given here
notes: Used at 0.15 or 1.5 nM in the pull-down from HUVEC lysate with streptavidin-agarose beads; also called biotinylated RLYE peptide

Reference: patent publication US20170037083A1 (AVIXGEN, published 2017)
